Laboratory results taken from the DeepSol protein solubility set.

Assay: soluble on expression in E. coli; label from the status in PepcDB or PDB records

Sequence | soluble on expression in E. coli
MGSDKIHHHHHHMKIGITCYPSMGGSGIIATELGIKMAERGHEVHFITSNIPFRIRKPLPNMTFHQVEVNQYAVFQYPPYDITLSTKISDVIQEYDLDILHMHYAVPHAVCGILAKQMSGKNVKIMTTLHGTDITVLGYDHTLQNAIKFGIEQSDIVTSVSHSLAQQTYEIINTKKEIIPIYNFVRENEFPTRHNEELKDCYGISPEEKVLIHVSNFRKVKRIDTVIETFAKVHESIPSKLILLGDGPELIDMRHKARELDVETHVLFLGKQNDVSAFYQLSDLVLLLSEKESFGLTLLEAMKTGVLPIGSHAGGIKEVIRHEETGFIVDIGDSTQAAKYAIKLLSNPELYQKMQSQMLKDIEARFSSDLITDQYENYYRKMLEQGENNNES | not soluble
MMKKIAITCALLSSLVASSVWADAASDLKSRLDKVSSFHASFTQKVTDGSGAAVQEGQGDLWVKRPNLFNWHMTQPDESILVSDGKTLWFYNPFVEQATATWLKDATGNTPFMLIARNQSSDWQQYNIKQNGDDFVLTPKASNGNLKQFTINVGRDGTIHQFSAVEQDDQRSSYQLKSQQNGAVDAAKFTFTPPQGVTVDDQRK | soluble
STGKAKPKKHTAKELQAKADAALTNRGGGKAGLADRTGKEKGGHAKYECPHCKITVPDLKTMQIHHESKHPKLTYEEPRNLHEALAAPAESSKPKPGIRGSLKK | soluble
MAHHHHHHMARLKVLNVAEKPSVASSIAEILSKGRPNKIKSCSKYNPVFTFDYKIKNDIWYMYVTSVTGHLTDQKFDDRYKNWHNTDPQELFDAEITVYVEKDKKNIENNLKKYSKECNMLILWLDCDREGEHICFEVINACRITNRKLIIHRAQFSAVTEKDIIHAINNLKEPNKNLAYSVDVRREIDLRMGSIFTRFMTIRYIELVKHETSIISYGPCQFPTLGFVVNRYLDIKNFKNEYYWSIKMKYVYNNDEINPMDDENNYDDHDDEQMDSDSDESDSYYTNNDDSNNYSDETDDYYGD | not soluble
MKVASGSTATAAAGPSCALKAGKTASGAGEVVRCLSEQSVAISRCAGGAGARLPALLDEQQVNVLLYDMNGCYSRLKELVPTLPQNRKVSKVEILQHVIDYIRDLQLELNSESEVGTPGGRGLPVRAPLSTLNGEISALTAEAACVPADDRILCRLEHHHHHH | soluble
MGSDKIHHHHHHMKRLSLLERSRLPTNDLGNARRLFEAANGRLLWLADGAGGKGCWIAFDGIRWSADEGPMRALAFAQKAAVEICDEAHALRECTADELAEVYGRKFSKEMAEERAGQLWTWSIKSGDSAKTTAMQNQFKGLRDGDEGPFVTQVWQRDFDAQPMAYHCSNGTLRFVQDDAGTWSHVFEKGHRPDDRFMQVANVAYDAAAKAKAWIERMEVMHHDPVQRTALQRIYGMTLTALISDQAFYIFQGKGQDGKSVTNDVVCQLHGMYARKADPKTFLEGPTQQSSGPQSDIVRLAGDVRLVVMDEPKKNSTWDGQKIKQATGSEMIARGVHATTELSFTPHWQLIAECNGLPKAPSDDRGFRRRFKLYPWVVQFGVTPGVADEPVHLVKARLIGEGSGVLNWMIKGCVEWLNERVVPEPEAAKRATASFWSASSAMGEWIASHCDLSDPEAREEATPLYKAFRQFCIDRGDDETKIITQTTFGRQLNDAQIYRVPNNSTGKVERVGIRLKRVDELGGGALSTSGRDTFDDDVARFDADNRDPFGAP | not soluble
MSDESEALLRVDHVKYRKAGDGKSPIGRLALFTDFIEWRDNASPEVFTCKFIRINGQRVSPPHKSKVQLQLILKNEDQATFVFLNPSASKEDLVKERDAVKEALQSALVKHRHRVNELAKSVESQSKQVELQAKQKILQEDRNLEKLYQNLVATKLITPDDFWSDYYQKEGVSEDKIGINGAFLANIVQQEGTNGVRLNLNPEIIQAIYSTYPAGQYWQNRENKKKCKEILKFTIQCEYLTRKISRSENYIQKKNLELVPHEMSEENFWKKFFQSHYFHREREVLPNPKDPFAECVRDDEEEMTKMTAEKIQRKRFDLEHIDDNGLRDFIHKSESQQKSAKTTLIKRCNYLSEKILATSWRSGEAAPTTSAAANQKKGFGVLDRLVAETETRLESEDLATKEAEDEVQIVRISSSAKASQAKYSKPDMTRYKALVTDYFQNSSVEDILHRNEMLLDQQEMETWEMEEAMETDNNEVPPPENWCQSAGDLAKVRDVHSAVREICRQFWKSFPPIDKASEEKLNRMAGTLSKYRDDIRNSDISKENLTHCIQMIDLAVDKFEAYEMKKMK | not soluble
MSNDKSAEVVVLPRENDEESKEPVLKNQFDLSTFDIDSPEIDLTHTRADHIPDLTGFPKIEELRMRNNLLVSISPTISSLVTLTSLDLYENQLTEISHLESLVNLVSLDLSYNRIRQINGLDKLTKLETLYLVSNKIEKIENLEALTQLKLLELGDNRIKKIENIGHLVNLDELFIGKNKIRQLEGVETLQKLSVLSLPGNRIVKIENVEQLNNLKELYLSDQGLQDIHGVEPLTNLLLLDVANNEIKTFSGVERLESLNDFWANDNKVESFSEIEQLSKLKGLQTVYLERNPFYFNDTNQYRRKVMMTLTQVTQIDATTCRKPIE | not soluble
MGSDKIHHHHHHLANTKELGPLRILISRLLKKAGELCFTASDLTISKEQAKLITRGAPRFPYHTPHNMLFWLDESQYVDKCIIQHGKYESASTNLVQQFVKEGQTVLDIGGNIGYYTVMFSKIVGRSGKVITFEPTAHYRSILEKNVQENQINNVLIRPEGLSDKAEKLTISIGSSTATLHAPEGQQIDSYEAIQLARLDDLVEQLDITKLDFIKIDVDGHEPSVLRGAQQTIKKFKPLILLEVSHLHYLEGNVFAWDFYDYLSSLNYYIYDEHEMCRITRRSDFLIRCANFDRSCNILLSPTLLNEH | not soluble
MGSDKIHHHHHHMASAPQANLPMFYNDLMPLNSRDHAAWKAKNADAAPWLIGQHAIPLTAEEFPQAARHYPIIFASGDNPVPLALMGLNEGVNVFVDEDGKVTQPVYIPAYVRRYPFLLAKLNPNSEELSLCFDPSSGLIGDSVDGVELFSDGQPSEATKAALGFCEQFEQAGQRTQAFIDELKKHDLLMEGEVAIQQQGNEQPFIYRGFQMVNQDKLRETRGDVLRGWAQSGLLPLLYAHLFSLELISQIFGAQVQMGKGPIPATPVPAE | not soluble
MFPAQEEADRTVFVGNLEARVREEILYELFLQAGPLTKVTICKDREGKPKSFGFVCFKHPESVSYAIALLNGIRLYGRPINVQYRFGSSRSSEPANQSFESCVKINSHNYRNEEMLVGRSSFPMQYFPINNTSLPQEYFLFQKMQWHVYNPVLQLPYYEMTAPLPNSASVSSSLNHVPDLEAGPSSYKWTHQQPSDSDLYQMTAPLPNSASVSSSLNHVPDLEAGPSSYKWTHQQPSDSDLYQMNKRKRQKQTSDSDSSTDNNRGNECSQKFRKSKKKKRY | soluble
MSLSKKFYPNSQAFLLEKKDLKTIDRKINANKGNFGHIYIVANASAGTLAGLGALNFGAGLVSLVAQKSFSPLLMLKEKIENNASAIALGMGLENLDFLKDEILQNTPLILDANCFLSEALLWYLNRKDVVITPHPKEFIKLYKMCFDENLDIETLQKNRFFYARKFSQNYDCVLVLKGANPIIVQKEKLFVVNLGNQALAKGGSGDVLSGMIAAHLGFGFSALEAAKNATLAHGLVAKKYKFNKNSFDALKLIKGLKCLEGHHHHHH | not soluble
MAHHHHHHMNSKDTNELKRGAGYLKEKAIIGLTRVTGNELDRAIYKVTSHKLKAPKEKHMQRVLAATRGYSSQKTHKGRNTCEYIVSEFEKRLHTHNWIVVLKTLVTFHRLMKDGSDEVNNCIQQNRNIFCFRNIKDLSESSEGAVQSVFIRQYMYYLEERSSSQRKLGASKRMENSEFGVFLRSLDVDTLGPVFESLLVQLSALVEVQYKEAIVDNFCTMEAFQRLVNDGKLLYQILSDRAIFILDGFSGFTLQQKKDWVRRYREYTVVGERLRLLFESIANSKRMFDEPPPPLKALPGSLLESLEREVRLSSIAHEDITETLESLGITADEKTPLKATTSDGTMAIYSPVATEKALDTTETGAPPVTEPKKESGFSIDDLFVPPPVTDSHQQTSYNPSTIPQGTQMEGPLIQTEANPNMTYTFPTGVPVGQNFFGQQPTGNSLTWEAPSPAPGSMQPQSAAGIVPSWSDSSASWGRGNCGSNTVDPFKDLYASQKGGQ | soluble
MDPLDDLLTQLEGVEEEELKPVNRAPRLLNMEEACENQGSSEKPSDSSSKNRYEDDDSDDEELYVKKRELTEQGALLKRHLEKNSSTSGPKATDAWKTNKKSVLTGLTKPSTDTVTVGIVRFDKFQISIRNPKISATSFGAFTAGMKLEKLSNLKPTSNFKEAWCTIGVIVEKGFKKKSANGNDFLIWKLHDLKDCQTQPVKLLMFGDAIKDHWEIKLGSVIALISAQIADDSTASGAKKTVSATLKVAKSNNIVEIGQSAHFGTCKGIRQQDGQRCSNFVNSSLSEFCVFHVMSAARKLSAKRGVFNAVTCGPNVGGLSFNKKPGTPRPPISSRPGISGSGLATSSGSPMLRDTMRPADSFTLTTPTSGLKKITKEEEKSSLNDLLSQRKNTFAARQMLKLKEKKDEKLAESVEEMIEFLGTTGGEEKPSVHSSFGEFLAADTRREKAATVDLRASSATSGTSASSPGGSKLWTMSLANKKAAPLGHKDAQEHAARLRAIAILKAKRKEAEMEKLTGGGGGVKRKASGTPTAPEPEAKKPRSQKMDEIRAMLARKSTHHKEAEKAEHDMLQRHLTGMEEREKVETFTTTCVEVKNVKVVTCNQCKYTSQFASSECIKKEHKLIKHTADKRFFKCTGCKKRTVCFEMMPVKHCAHCNENKWERVAMKDERKVVLDTENLLLRGEERPFVGS | not soluble
MAHHHHHHSLNDIVEVEIVDLTHEGAGVAKVDGLVFFVENALPSEKILMRVLKVNKKIGFGKVEKYLVQSPHRNQDLDLAYLRSGIADLGHLSYPEQLKFKTKQVKDSLYKIAGIADVEVAETLGMEHPVKYRNKAQVPVRRVNGVLETGFFRKNSHNLMPLEDFFIQDPVIDQVVVALRDLLRRFDLKPYDEKEQSGLIRNLVVRRGHYSGQIMVVLVTTRPKVFRVDQLIEQVIKQFPEIVSVMQNINDQNTNAIFGKEWRTLYGQDYITDQMLGNDFQIAGLAFYQVNTEMAEKLYQTAIDFAELKKDDVVIDAYSGIGTIGLSVAKHVKEVYGVELIPEAVENSKKNAQLNNISNAHYVCDTAENAMKNWLKDGIQPTVILVDPPRKGLTESFIKASAQTGADRIAYISCNVATMARDIKLYQELGYELKKVQPVDLFPQTHHVETVALLSKLDVDKHISVEIELDEMDLTSAESKATYAQIKEYVWNKFELKVSTLYIAQIKKKCGIELREHYNKSKKDKQIIPQCTPEKEEAIMDALRHFKMIEG | soluble
MGSDKIHHHHHHMKTPLVITALSLCLPFMAHAGSSFVEGDDILAGEVELGATLTTGNTDTSSFKGRLALKHELGNWENQYLLEGLYKEDTETVTAKRYIVGAQGDYLIDHDSYIFSNMNYEVDPFTGYEYSFTAASGYGHKFINDDRTKLKAEIGPGFIYQKLDSTLAAIEGYDTDKSVVAHAVINFETKLGDSSKFGQKLVMDMGEKIDARSETSLTANIVGALAMKFAVIVRYNSNPLDSKTSTDTETNMTLLYAF | not soluble
GSHMGHIIDISKWNGDINWSIAKQHIDFIIARVQDGSNYVDPLYKGYVQAMKQHGIPFGNYAFCRFVSIADAKKEAQDFWNRGDKSATVWVADVEVKTMNDMRAGTQAFIDELYRLGAKKVGLYVGHHMYTPFGMANVKSDFVWIPRYGGNKPAYPCDIWQYTETGNVPGIGKCDLNSLIGNKSLSWFTESA | soluble
MGSDKIHHHHHHMDSKHSMISLKQKLSGLLDVIPKQSEIIYADYPLYGNVGDLFIMKGTEAFFKEHGIRVRKRWNPDNFPIGRKLDPNLIIVCQGGGNFGDLYPYYQGFREKIVQTYPNHKIVILPQSIYFQNKDNLKRTAEIFSKHANLHIMTREKASYATAQAYFTTNHIQLLPDMAHQLFPVIPTQQPSNQKLRFIRTDHEANQALQEHAEAESYDWRTVLSASDRRTIAFLQTLNVLNKKAGNPLPIAYIWEKYSDYIVQKAIRFFSRYESVETSRLHGHILSSLLQKENTVIDNSYGKNANYFHTWMEGVPSTRLIQHASKKENLPAHM | not soluble
